Test results: US20260166131A1, “METHOD FOR PROMOTING PATHOLOGICAL TDP-43 PROTEIN DEGRADATION, AND DRUG” (TALENGEN INTERNATIONAL LIMITED, priority 2022, published 2026)
Entries after “also recorded” stand apart in the source; their conditions may differ. Where two headings read alike, the source gives them in different places.

Assays:
TDP-43 [1] = target: T1, TDP-43 (Homo sapiens, UniProt Q13148); assay: Cleavage of TDP-43 protein in normal mouse brain homogenate (Western blot); assay type: biochemical; settings: normal mouse brain homogenate + recombinant TDP-43, 37° C. 3 h, vs vehicle control group
T1 construct: purchased Nanjing GenScript Biotechnology Co., Ltd. C134WHE160-2/P5HF001
Procedure: Four C57BL/6J male mice aged 11-12 weeks and weighing 18-25 g were sacrificed, and the whole brain was taken out to weigh. 1×PBS was added at 150 mg tissue/mL PBS (Thermo Fisher, pH 7.4; 10010-031) to homogenize at 4° C. (1 min, 3-4 times). After homogenization, centrifugation was performed at 4° C. (12000 rpm, 20 min), and the supernatant, i.e., the brain homogenate, was placed in a new EP tube.
Eppendorf (EP) tubes were set as: (1) blank group, (2) blank control group, (3) vehicle control group, and (4) plasminogen group, with 5 parallels in each group. The blank group was added with 21.5 μL of normal saline, 4.6 μL of vehicle solution (10 mM sodium citrate, 2% arginine hydrochloride, 3% mannitol, pH 7.4), and 23.9 μL of mouse brain homogenate; the blank control group was added with 21.5 μL of normal saline, 2.3 μL of plasminogen solution (2 mg/mL), and 23.9 μL of mouse brain homogenate; the vehicle control group was added with 20.5 μL of TDP-43 (Nanjing GenScript Biotechnology Co., Ltd., custom-expressed human TDP-43, C134WHE160-2/P5HF001, 1.05 mg/mL), 4.6 μL of vehicle solution, and 23.9 μL of mouse brain homogenate; the plasminogen group was added with 20.5 μL of TDP-43 (1.05 mg/mL), 2.3 μL of plasminogen solution (2 mg/mL), and 23.9 μL of mouse brain homogenate. After adding each group of samples, they are incubated at 37° C. for 3 h, then adding 50 μL of 0.1% trifluoroacetic acid solution to terminate the reaction.
A 12% gel was prepared according to the SDS-PAGE gel preparation instructions. Each group of samples was mixed with 4× loading buffer (TaKaRa, e2139) at a volume ratio of 3:1, heating at 100° C. for 5 min, cooling and centrifuging for 2 min, and then 20 μL was taken for sample loading. […] After washing 4 times with TBST, the PVDF membrane was placed on a clean imaging plate, Immobilon Western HRP Substrate (MILLIPORE, WBKLS0100) was added for color development, and photos were taken under a biomolecular imager, then performing quantitative analysis by using Image J.

[2] = Spinal cord tissue plasminogen level after tail vein injection in SOD1-G93A mice (ELISA); assay type: in vivo, mouse
Source text: Spinal cord tissue was obtained from the mice sacrificed in Example 11, homogenizing and detecting according to the instructions of Human Plasminogen ELISA Kit (manufacturer: AssayMax, catalog number: EP1200-1). The human plasminogen working standard in the kit was used as the internal standard to calibrate the concentration of each sample. The calibrated concentration was divided by the total protein concentration to calculate the amount of plasminogen per unit of total protein in each sample and perform statistical analysis.

TDP-43 [3] = target: TDP-43 (Mus musculus, UniProt Q921F2); assay: TDP-43 in cytoplasm and nucleus of NSC34 cells treated with okadaic acid (Western blot); assay type: cell-based; parameters: host or cells: NSC34 cells; settings: okadaic acid 2.5 ng/uL 24 h, plasminogen 0.5 mg/mL 24 hours, vs vehicle group
Procedure: 10^6 NSC34 cells (Otwo Biotech, HTX1846) were inoculated in a 9 cm^2 culture dish, and cultured in DMEM medium (Gibco, 11965092) containing 10% fetal bovine serum (EVERY GREEN, 11011-8611). The cells were placed in a carbon dioxide incubator for culture at 37.0° C. and 5% CO2. After the cells grew for 48 hours and reached about 80%-90% abundance, the medium was changed, and subsequent experiments were performed. […] After adding plasminogen for 24 hours, the cells were harvested. The culture supernatant was sucked off, washing with 1×PBS, digesting with 1 mL of 0.25% pancreatic enzyme for 2-3 minutes, then stopping digestion with 5-6 mL of DMEM complete medium when the cells were obviously detached. The cells were slowly blown, and the suspension was collected into a centrifuge tube, centrifuging at 1500 rpm for 5 min to remove the supernatant, resuspending with pre-cooled 1×PBS, and counting the cells. 200 μL of plasma protein extraction reagent (the volume of a pellet of 2×10^6 cells is about 20 μL or 40 mg) (Solarbio, R0050) was added for every 20 μL of cell pellet. The cell pellet was completely dispersed into a single-cell suspension by pipette blow or high-speed vortex for 15 seconds, then ice-bathing for 10 minutes, vortexing vigorously at maximum speed for 10 seconds and centrifuging at 12,000-16,000 g for 10 minutes at 4° C. […]

[4] = Brain tissue plasminogen level in MPTP Parkinson's model mice (ELISA); assay type: in vivo, mouse; settings: 50 mg/kg tail vein
[5] = Parkinson's model mice, 50 mg/kg tail vein
Procedure: Eighteen 6-week-age male C57BL/6J mice were injected intraperitoneally with 1-methyl-4-phenyl-1,2,3,6-tetrahydropyridine (MPTP) solution at a dose of 35 mg/kg/mouse for 5 consecutive days to establish a Parkinson's model. Preparation of MPTP solution: 45 mg of MPTP (Sigma, M0896) was dissolved in 9 ml of physiological saline solution to prepare a final concentration of 5 mg/ml. The mice were randomly divided into two groups according to their body weight: 6 mice in vehicle group, 12 mice in plasminogen group; and administration was begun to record as day 1. The mice in the plasminogen group were injected with 50 mg/kg body weight of plasminogen solution by tail vein, and the mice in the vehicle group were injected with 5 mL/kg body weight of vehicle solution (10 mM citric acid-sodium citrate solution, pH 7.4) by tail vein.

TDP-43 (Mus musculus, UniProt Q921F2), sequence (Q921F2 whole entry): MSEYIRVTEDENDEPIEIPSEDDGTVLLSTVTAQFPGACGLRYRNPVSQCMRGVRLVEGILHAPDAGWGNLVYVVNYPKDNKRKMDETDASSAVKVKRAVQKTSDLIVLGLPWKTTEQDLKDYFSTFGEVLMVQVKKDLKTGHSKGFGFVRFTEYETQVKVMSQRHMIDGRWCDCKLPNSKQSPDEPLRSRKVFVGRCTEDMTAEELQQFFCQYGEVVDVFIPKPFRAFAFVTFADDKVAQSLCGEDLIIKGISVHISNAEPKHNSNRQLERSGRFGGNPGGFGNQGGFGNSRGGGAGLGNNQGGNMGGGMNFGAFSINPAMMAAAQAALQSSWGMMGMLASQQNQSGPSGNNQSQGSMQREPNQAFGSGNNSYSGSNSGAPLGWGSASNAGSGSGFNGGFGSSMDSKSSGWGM
T1 sequence (Q13148 whole entry): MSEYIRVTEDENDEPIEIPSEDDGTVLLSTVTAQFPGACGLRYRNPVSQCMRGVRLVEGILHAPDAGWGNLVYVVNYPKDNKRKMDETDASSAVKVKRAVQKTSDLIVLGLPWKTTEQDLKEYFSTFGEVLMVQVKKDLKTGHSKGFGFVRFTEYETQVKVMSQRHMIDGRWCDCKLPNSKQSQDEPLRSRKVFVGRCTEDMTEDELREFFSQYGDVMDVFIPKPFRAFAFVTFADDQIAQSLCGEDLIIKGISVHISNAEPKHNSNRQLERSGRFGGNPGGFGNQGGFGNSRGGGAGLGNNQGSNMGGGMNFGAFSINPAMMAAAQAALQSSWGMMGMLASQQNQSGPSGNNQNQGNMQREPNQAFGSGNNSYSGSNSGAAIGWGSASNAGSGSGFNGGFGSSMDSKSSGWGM

B1: plasminogen: human plasminogen purified from human donor plasma, in which human Lys-plasminogen and Glu-plasminogen are >98% (protein)
chain: KVYLSECKTGNGKNYRGTMSKTKNGITCQKWSSTSPHRPRFSPATHPSEGLEENYCRNPDNDPQGPWCYTTDPEKRYDYCDILECEEECMHCSGENYDGKISKTMSGLECQAWDSQSPHAHGYIPSKFPNKNLKKNYCRNPDRELRPWCFTTDPNKRWELCDIPRCTTPPPSSGPTYQCLKGTGENYRGNVAVTVSGHTCQHWSAQTPHTHNRTPENFPCKNLDENYCRNPDGKRAPWCHTTNSQVRWEYCKIPSCDSSPVSTEQLAPTAPPELTPVVQDCYHGDGQSYRGTSSTTTTGKKCQSWSSMTPHRHQKTPENYPNAGLTMNYCRNPDADKGPWCFTTDPSVRWEYCNLKKCSGTEASVVAPPPVVLLPDVETPSEEDCMFGNGKGYRGKRATTVTGTPCQDWAAQEPHRHSIFTPETNPRAGLEKNYCRNPDGDVGGPWCYTTNPRKLYDYCDVPQCAAPSFDCGKPQVEPKKCPGRVVGGCVAHPHSWPWQVSLRTRFGMHFCGGTLISPEWVLTAAHCLEKSPRPSSYKVILGAHQEVNLEPHVQEIEVSRLFLEPTRKDIALLKLSSPAVITDKVIPACLPSPNYVVADRTECFITGWGETQGTFGAGLLKEAQLPVIENKVCNRYEFLNGRVQSTELCAGHLAGGTDSCQGDSGGPLVCFEKDKYILQGVTSWGLGCARPNKPGVYVRVSRFVTWIEGVMRNN
amount of TDP-43 monomer (TDP-43 [1]; WB optical density): significantly lower | amount of high molecular weight TDP-43 protein (HMW) (TDP-43 [1]): significantly lower | amount of low molecular weight TDP-43 fragment (LMW) (TDP-43 [1]): significantly lower | plasminogen level in the spinal cord, 50 mg/kg group compared with 6 mg/kg group ([2]; tail vein): significantly higher | time within which plasminogen is almost completely metabolized (spinal cord) ([2]; tail vein 50 mg/kg and 6 mg/kg): 12 to 24 h | plasminogen level in the spinal cord ([2]; tail vein injection of 6 mg/kg): increase significantly | plasminogen level in the spinal cord ([2]; tail vein injection of 50 mg/kg): increase significantly | level of TDP-43 in the cytoplasm (TDP-43 [3]): significantly lower; also recorded: almost significantly or significantly lower | level of TDP-43 in the nucleus (TDP-43 [3]): significantly lower; also recorded: almost significantly or significantly lower | time within which plasminogen is almost completely metabolized (brain tissue) [4]: 12 to 24 h | plasminogen level in the brain tissue ([4]; vs vehicle group): significantly higher | ratio of brain tissue plasminogen level to blood plasminogen level ([5]; 2 hours): 3.47% | ratio of spinal cord tissue plasminogen level to blood plasminogen level ([5]; 2 hours): 1.24% | ratio of brain tissue plasminogen level to blood plasminogen level ([5]; 6 hours): 4.18% | ratio of spinal cord tissue plasminogen level to blood plasminogen level ([5]; 6 hours): 1.16% | ratio of brain tissue plasminogen level to blood plasminogen level ([5]; 12 hours): 8.51% | ratio of spinal cord tissue plasminogen level to blood plasminogen level ([5]; 12 hours): 1.46%
